Source: publication PMC10926671

Target: H3K27me3 peptide
Experiment: ITC

## MBP-BP1 (maltose-binding protein-tagged bromo-adjacent homology-plant homeodomain domain containing protein 1) (natural protein)
  Kd: 16.2 µM
